Assay results from PMC3375900.

Molecular target: Hrs (rat (endogenous in rat brain cytosol)) (UniProt Q9JJ50)
Assay: co-IP

UniProt Q9JJ50, sequence (Q9JJ50 whole entry): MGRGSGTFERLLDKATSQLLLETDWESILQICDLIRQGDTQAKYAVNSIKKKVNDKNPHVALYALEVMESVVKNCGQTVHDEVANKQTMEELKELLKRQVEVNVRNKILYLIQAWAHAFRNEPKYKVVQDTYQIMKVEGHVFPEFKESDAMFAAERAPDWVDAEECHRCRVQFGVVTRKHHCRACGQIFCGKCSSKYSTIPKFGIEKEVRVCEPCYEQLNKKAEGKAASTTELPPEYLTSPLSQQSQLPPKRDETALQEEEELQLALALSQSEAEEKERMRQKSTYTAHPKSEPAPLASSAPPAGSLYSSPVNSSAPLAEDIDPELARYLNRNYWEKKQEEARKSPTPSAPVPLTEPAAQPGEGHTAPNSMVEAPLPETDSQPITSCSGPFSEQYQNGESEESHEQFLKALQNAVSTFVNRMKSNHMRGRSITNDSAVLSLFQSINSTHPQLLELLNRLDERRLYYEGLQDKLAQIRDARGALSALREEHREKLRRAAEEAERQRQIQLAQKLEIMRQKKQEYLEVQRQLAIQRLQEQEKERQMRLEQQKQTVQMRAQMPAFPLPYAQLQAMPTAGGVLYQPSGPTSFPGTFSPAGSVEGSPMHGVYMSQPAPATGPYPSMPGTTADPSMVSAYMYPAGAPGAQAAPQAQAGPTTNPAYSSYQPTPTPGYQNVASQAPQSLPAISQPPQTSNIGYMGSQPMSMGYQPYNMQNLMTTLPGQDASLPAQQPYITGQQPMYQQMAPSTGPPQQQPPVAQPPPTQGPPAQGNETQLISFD

percent of STAM remaining in the cytosol after immunodepletion of Hrs: 16.5%
Substance: signal-transducing adaptor molecule (STAM) (from UniProt Q5XHY7 1-523) (natural protein)
